{"source": "patent US20030078370", "key": {"[1]": {"system": "GFP protein fused to human cyclin E2 splice variant [GFP: P42212]"}, "[2]": {"system": "GFP protein fused to full length human cyclin E2 [GFP: P42212]"}}}
{"substance": "hemagluttinin-tagged human cdk2", "values": [{"measurement": "phosphorylation of histone H1 (kinase assay with 32P-ATP, autorad)", "setting": "[1]", "result": "cannot phosphorylate histone H1"}, {"measurement": "phosphorylation of histone H1 (kinase assay with 32P-ATP, autorad)", "setting": "[2]", "result": "can phosphorylate histone H1"}]}
